Values quoted from earlier work in PMC6085760.

Target: Amyloid-β (Homo sapiens) (UniProt P05067)
Sequence (P05067 672-711): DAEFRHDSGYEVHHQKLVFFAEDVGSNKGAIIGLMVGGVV

LPFFD peptide
Kd: 156 µM
